# Assay results reported in publication PMC7647119.
# Molecular target: T1, MADS29-His (Oryza sativa) (UniProt Q6H711)
# T1 sequence: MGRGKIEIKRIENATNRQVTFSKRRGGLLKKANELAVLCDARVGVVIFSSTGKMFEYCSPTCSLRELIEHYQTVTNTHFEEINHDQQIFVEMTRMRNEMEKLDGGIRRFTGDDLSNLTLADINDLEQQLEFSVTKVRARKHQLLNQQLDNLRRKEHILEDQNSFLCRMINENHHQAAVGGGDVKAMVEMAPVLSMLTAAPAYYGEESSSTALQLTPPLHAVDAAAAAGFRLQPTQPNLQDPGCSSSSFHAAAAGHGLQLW
# Experiment: EMSA
# Settings: LightShift Chemiluminescent EMSA Kit per manufacturer; buffer, salt, pH and temperature not stated
row,Sequence,binding
1,ATTTTGCTCATTTGGTATAGATCTTTCTTACATATATAAGACTGATCTCTATAGTGGTGA (double strand) [POsAsp1 -1412 CArG probe],binds
2,TCTATAGACTAGTCAGCATTTTTTTTAGCTCCATATTTGGATTTGTCAACTTCAGAAAAG (double strand) [POsAsp1 -770 CArG probe],binds
